Results as given in the DeepSol protein solubility set.

Assay: soluble on expression in E. coli; label from the status in PepcDB or PDB records

Sequence | soluble on expression in E. coli
GSHVSKREDGRLDHELRPVIITRGFTENPAGSVLIEFGHTKVLCTASVTEGVPRWRKATGLGWLTAEYAMLPSATHSRSDRESVRGRLSGRTQEISRLIGRSLRACIDLAALGENTIAIDCDVLQADGGTRTAAITGAYVALADAVTYLSAAGKLSDPRPLSCAIAAVSVGVVDGRIRVDLPYEEDSRAEVDMNVVATDTGTLVEIQGTGEGATFARSTLDKLLDMALGACDTLFAAQRDALALPYPGVLPQGPPPPKAFGT | soluble
GSKESPLHGTQNTINKRTQPTFGFTVNWKFSESTTVFTGQCFIDRNGKEVLKTMWLLRSSVNDIGDDWKATRVGIMIFTRLRTQKEGGSGGSARKCSLTGKWTNDLGSNMTIGAVNSRGEFTGTYITAVT | soluble
GSLQDNSSYPDEPWRITEEQREYYVNQFRSLQPDPSSFISGSVAKNFFTKSKLSIPELSYIWELSDADCDGALTLPEFCAAFHLIVARKNGYPLPEGLPPTLQPEFIVTD | soluble
GSLYNDGNRDQRNFGRNQRNNNSNRYRNSRFNSRPRTRSREDDDEVHFDKTTFSKLIHVPKEDNSKEVTLDSLLEEGVLDKEIHKAITRMEFPGLTPVQQKTIKPILSSEDHDVIARAKTGTGKTFAFLIPIFQHLINTKFDSQYMVKAVIVAPTRDLALQIEAEVKKIHDMNYGLKKYACVSLVGGTDFRAAMNKMNKLRPNIVIATPGRLIDVLEKYSNKFFRFVDYKVLDEADRLLEIGFRDDLETISGILNEKNSKSADNIKTLLFSATLDDKVQKLANNIMNKKECLFLDTVDKNEPEAHERIDQSVVISEKFANSIFAAVEHIKKQIKERDSNYKAIIFAPTVKFTSFLCSILKNEFKKDLPILEFHGKITQNKRTSLVKRFKKDESGILVCTDVGARGMDFPNVHEVLQIGVPSELANYIHRIGRTARSGKEGSSVLFICKDELPFVRELEDAKNIVIAKQEKYEPSEEIKSEVLEAVTEEPEDISDIVISLISSYRSCIKEYRFSERRILPEIASTYGVLLNDPQLKIPVSRRFLDKLGLSRSPIGKAMFEIRDY | soluble
GSMAEGRGSRERPDVETQKTELGALMGTTLQRGAQWYLIDSRWFKQWKKYVGFDSWDMYNVGEHNLFPGPIDNSGLFSDPESQTLKEHLIDELDYVLVPAEAWNKLLNWYGCVEGQQPIVRKVVEHGLFVKHCKVEVYLLELKLCENSDPTNVLSCHFSKADTIATIEKEMRKLFNIPAERETRLWNKYMSNTYEQLSKLDNTIQDAGLYQGQVLVIEPQNEDGTWPRQSL | soluble
GSMDPSGVKVLETAEDIQERRQQVLDRYHRFKELSTLRRQKLEDSYRFQFFQRDAEELEKWIQEKLQIASDENYKDPTNLQGKLQKHQAFEAEVQANSGAIVKLDETGNLMISEGHFASETIRTRLMELHRQWELLLEKMREKGIKLLQ | soluble
GSMSLPPIRLPSPYGSDRLVQLAARLRPALCDTLITVGSQEFPAHSLVLAGVSQQLGRRGQWALGEGISPSTFAQLLNFVYGESVELQPGELRPLQEAARALGVQSLEEACWRARGDRA | soluble
GSNKLHLRVVTLIEHPFVFTREVDDEGLCPAGQLCLDPMTNDSSMLDRLFSSLHSSNDTVPIKFKKCCYGYCIDLLEQLAEDMNFDFDLYIVGDGKYGAWKNGHWTGLVGDLLSGTANMAVTSFSINTARSQVIDFTSPFFSTSLGILVRTRGTELSGIHDPKLHHPSQGFRFGTVRESSAEDYVRQSFPEMHEYMRRYNVPATPDGVQYLKNDPEKLDAFIMDKALLDYEVSIDADCKLLTVGKPFAIEGYGIGLPPNSPLTSNISELISQYKSHGFMDVLHDKWYKVVPCGK | soluble
GSNSQVWSALQMSKALQDSAPDRPSPVERIVSRDIARGYERIPIPCVNAVDSEPCPSNYKYVSQNCVTSPMNIDRNITHLQYCVCIDDCSSSNCMCGQLSMRCWYDKDGRLLPEFNMAEPPLIFECNHACSCWRNCRNRVVQNGLRARLQLYRTRDMGWGVRSLQDIPPGTFVCEYVGELISDSEADVREEDSYLFDLDNKDGEVYCIDARFYGNVSRFINHHCEPNLVPVRVFMAHQDLRFPRIAFFSTRLIEAGEQLGFDYGERFWDIKGKLFSCRCGSPKCRHS | soluble
GSPGISGGGGGIPVIDGPTQILVRDVSDTVAFVEWTPPRAKVDFILLKYGLVGGEGGKTTFRLQPPLSQYSVQALRPGSRYEVSISAVRGTNESDASSTQFTTEIDAPKNLRVGSRTATSLDLEWDNSEAEAQEYKVVYSTLAGEQYHEVLVPKGIGPTTKTTLTDLVPGTEYGVGISAVMNSKQSIPATMNARTELDSPRDLMVTASSETSISLIWTKASGPIDHYRITFTPSSGISSEVTVPRDRTSYTLTDLEPGAEYIISITAERGRQQSLESTVDAFT | soluble
GSSANDWQCKTCSNVNWARRSECNMCNTPKYAK | soluble
GSSMVTGGMASKWDQKGMDIAYEEALLGYKEGGVPIGGCLINNKDGSVLGRGHNMRFQKGSATLHGEISTLENCGRLEGKVYKDTTLYTTLSPCDMCTGAIIMYGIPRCVIGENVNFKSKGEKYLQTRGHEVVVVDDERCKKLMKQFIDERPQDWFEDIGE | soluble
GVKCEPIEELTINVPEEYSSKIIDMVTRRKGEMTMMENTGERINLEFDMPSRGIIGLRTNVLTASAGEAIMAHRFKEYQPFKGDIERRTNGSIIAMESGTAFAYAIDKLQDRGKFFIFPQEEVYAGQV | not soluble
GWIQELTAGHAEHTPETEEYGISSFVYKRRLPFHSTRFYRWLDQMPKNVVRAKGIVWCASHNNLALLMSQAGPSVTIEPVSYWVAALPKLEQEQVKQQEPEILEEWDPEFGDRLTQLVFIGTDLDEETITKELDQCLLTEYEFDSDWSLFEDPFKWKLNQ | not soluble
HGPEGTVEIETVKLARSVFSKLHEICCSWVKDFPLRRRPQLYYETSIHAIKNMRRKMEDKHVCIPDFNMLFNLEDQEEQAYFAVFDGHGGVDAAIYASIHLHVNLVRQEMFPHDPAEALCRAFRVTDERFVQKAARESLRCGTTGVVTFIRGNMLHVAWVGDSQVMLVRKGQAVELMKPHKPDREDEKQRIEALGGCVVWFGAWRVNGSLSVSRAIGDAEHKPYICGDADSASTVLDGTEDYLILACDGFYDTVNPDEAVKVVSDHLKENNGDSSMVAHKLVASARDAGSSDNITVIVVFLRDMNKVRASSPSPL | soluble
HGSSHHHHHHSSENLYFQGHMWNSRKVGVLGGGQLGRMLVESANRLNIQVNVLDADNSPAKQISAHDGHVTGSFKEREAVRQLAKTCDVVTAEIEHVDTYALEEVASEVKIEPSWQAIRTIQNKFNQKEHLRKYGIPMAEHRELVENTPAELAKVGEQLGYPLMLKSKTMAYDGRGNFRVNSQDDIPEALEALKDRPLYAEKWAYFKMELAVIVVKTKDEVLSYPTVETVQEDSICKLVYAPARNVSDAINQKAQELARKAVAAFDGKGVFGVEMFLLEDDSIMLCEIASRIHNSGHYTIEGCALSQFDAHLRAILDLPIPAQSLEIRQPSIMLNIIGGAAPDTHLQAAECALSIPNASIHLYSKGAAKPGRKMGHITVTAPTMHEAETHIQPLIDVVDRIRA | soluble
HGTSDATLLKGVGHLYGTALPVGGLGTRSVLTAHSGIQKSTFFDNLEKVKKGDAIYVRNIGETLKYQVRDIEIIRPAEIDRIQPIPDRDLITLVTCTPYGINTHRLLVTAERVPMEPGEADRAFAGDGIVWQWWMK | not soluble
HHMSAIKPDMKINLRMEGNVNGHHFVIDGDGTGKPFEGKQSMDLEVKEGGPLPFAFDILTTAFHYGNRVFAEYPDHIQDYFKQSFPKGYSWERSLTFEDGGICIARNDITMEGDTFYNKVRFHGVNFPANGPVMQKKTLKWEPSTEKMYVRDGVLTGDITMALLLEGNAHYRCDSRTTYKAKEKGVKLPGYHLVDHCIEILSHDKDYNKVKLYEHAVAHSGLPDNARR | soluble
HMAMASKEMFEDTVEERVINEEYKIWKKNTPFLYDLVMTHALQWPSLTVQWLPEVTKPEGKDYALHWLVLGTHTSDEQNHLVVARVHIPNDDAQFDASHCDSDKGEFGGFGSVTGKIECEIKINHEGEVNRARYMPQNPHIIATKTPSSDVLVFDYTKHPAKPDPSGECNPDLRLRGHQKEGYGLSWNSNLSGHLLSASDDHTVCLWDINAGPKEGKIVDAKAIFTGHSAVVEDVAWHLLHESLFGSVADDQKLMIWDTRSNTTSKPSHLVDAHTAEVNCLSFNPYSEFILATGSADKTVALWDLRNLKLKLHTFESHKDEIFQVHWSPHNETILASSGTDRRLNVWDLSKIGEEQSAEDAEDGPPELLFIHGGHTAKISDFSWNPNEPWVICSVSEDNIMQIWQMAENIYNDE | soluble
HMVHITLDPDTANPWLILSEDRRQVRLGDTQQSIPGNEERFDSYPMVLGAQHFHSGKHYWEVDVTGKEAWDLGVCRDSVRRKGHFLLSSKSGFWTIWLWNKQKYEAGTYPQTPLHLQVPPCQVGIFLDYEAGMVSFYNITDHGSLIYSFSECAFTGPLRPFFSPGFNDGGKNTAPLTLCPL | soluble
HQIGEDTYIVQGTMTLNDFNNYFDVELESDDVDTIAGYYLTGVGTIPTTEKLSYELVSQNKQFILTNDKVKNGRVTKVKVQITEVEIEEETE | not soluble
HSHDWLTYPAGIHAKTVTGKPLVVHVHATDFDRSRGNVNPQVFAIEKDGMNHADHIITVSNLTRRTVIEKYGQHPDKVTTVHNAVEPLPASILALPDKRGVKDKVITFLGRITMQKGPEYFVEAAAKVLERTSDVRFVMAGNGDMMDAMIRLAARHKIADRFHFTGFMKGEQVYEVFKASDVYVMPSVSEPFGISPLEAMQCGVPSIISKQSGCAEILDYAIKVDYWDIDAMADAMHALIAYPELHTFLRDEGLREVNNIKWETAGQKVRDIYNKVTGR | not soluble
HSIISETTNTNYRQEFVQLGTQMSGKLSFEEWKELYRRIVFWEIELEQADRQMGELLEMQKQEANRLFARFVTQNYREWIAKPDTRPTMSPDLFKQKVFPLLDNGEKVFFILIDNFRQDQWESVKSMLSEFYTFEEDMYLSILPTATQYARNAIFSGLMPLQIEKMFPDLWVDEESEEGKNLNEEPMIRTLIERYRKHYSFSYNKVYETKFGERLLGQIRSLSQNQLNVIVLNFVDMMSHARTDSKMIRELASNEAAYRSLTKSWFKHSTTYNLFRSIAEMGYKVVLTTDHGTIQVKNPVKVIGDRSTNTNLRYKIGKNLDYNPKEVFEIKDPASVGLPHNNLSDKFIFTKEDDFFAYPNNYNYYVQYYRNTFQHGGISLEEMLVPVITMQPK | soluble
HWVTPDGQPGPSGEGGFTAESGRYHLFVSLACPWAHRTLIFRHLKDLQAHIGITIVDPRMLEHGWAFSEISRDNPVQDIRYLHQLYTRAKPDYTGRVTVPVLWDKQRDTIVSNESADIIRMFNSAFDSLTGNDLDFYPEALRNEIGTINEVVYRDFNN | not soluble
IAAVGDGVCMLDRGFRIVYQNRAHERLLGEHGGERCSDAYGEDPDACRDCPMARAMDTGEVCTGSRRFISKGETRLLEITSSPVRNAAGEIVAGVEVVRDVT | not soluble
IALENTIEQRLAADVATLVSAARVEKGRLVMPEHLPVEEFNLPEAKVLGYIYDQNGDLLWRSTSAADESINYTPRYDGRGNEFHTTRDAKGEEFFVFDVEIDLLRGKQAAYSIVTMQSVSEFESLLKGFREQL | not soluble
